This data set deals with GST-OPNR153A (E. coli produced mutant OPN with the arginine in the thrombin cleavage site mutated to alanine) (UniProt P10923).

The record followed here is patent US20230255948.

Regarding Thrombin, the “thrombin cleavage (time course, 10 nM thrombin, SDS-PAGE)” value is reported as “resistant to thrombin cleavage”.
